Reference: the RNAGym collection of RNA variant scans (doi:10.1021/acssynbio.7b00057)

B1: Pistol ribozyme (parent)
chain: GGGUCGUUGUUCCAUAAUCGCGUGGAUAUGGCACGCAAGUUUCUACCGGGCACCGUAAAUGUCCGACUGGAGCCGUUCGGGCGGCUAUAAACAGACCUCAGGCCCGAAGCGUGGCGGCACCUGCCGCCGGUGGUAAAAAAGAUCGGAAGAGCACACGUCU

Variants of: B1
Assay: aptazyme ON/OFF ratio, guanine; higher = stronger switching; co-transcriptional cleavage with and without guanine

Variant | aptazyme ON/OFF ratio
U7A U8G G9C U10G U11A C13A | 1.11
U7A U11A C12G | 1.2
U7G U8G U10G U11C C12A | 1.17
U8G G9U U10G U11A | 1.09
U7A G9U U10G U11C C12U C13U | 1.22
U7C U8G G9A U10C C12A C13A | 1.13
U7A U8C U10G U11A C12G C13G | 1.14
U8A G9C U10C U11C | 1.01
U8G G9A U10C U11G C12A C13A | 1.18
U7G U8C G9A U10A U11C C12G C13U | 1.09
U8A G9C U10G U11G C12A | 1.14
U7C U8A G9C U10G U11A | 1.05
U7C U8G G9C C12G C13A | 1.27
U7A U8G G9U U10C U11C C12G C13G | 1.11
U7C U8A G9A U10G U11C C12G C13A | 1.13
U7G U8A G9A U10A U11A C12U | 1.18
U8C U10A U11A C13G | 1.22
U7G U8C G9C U10A U11A C12A C13A | 1.12
U7A U8A G9A U10C U11C C12U C13A | 1.06
U8C G9U U10A U11A C12A | 1.39
U7C U10A U11C C12U | 1.03
U7C U8A G9C U10G C12A C13G | 1.09
U7G U8C G9C U11C | 1.87
U8C G9C U10A U11G C12A C13U | 1.07

Variant | aptazyme ON/OFF ratio
U7G U8G G9U U10A U11A C12G C13U | 1.14
U7C U8A G9U U10G U11C C13U | 1.05
G9C U10C U11G C12G C13U | 1.11
U7A U8C G9U C13U | 1.23
U7A U8G G9U U10G U11G C12A C13G | 1.13
U7A U8G G9U U10A U11C C12A C13A | 1.25
U7A U8G G9A U10A U11A C13G | 1.17
U8G G9C U10G | 1.19
U7G G9A U10G U11C C13U | 1.08
U8A U10G C13U | 1.18
U7A G9U U10A U11A C12A C13U | 1.3
U8C G9U U11C C12G C13G | 1.03
U7C U8C G9U U11A C12G | 1.18
U7C U8G G9A U10A U11C C12U C13A | 1.14
U8C G9A U10C U11A C13A | 1.2
U7G U8C G9C U10C U11G C12G C13A | 1.1
U7G U8C G9C U10C U11G C12G C13G | 1.09
U7G U8G U11A C12G C13U | 1.33
U8A G9U U10C U11C C12G C13A | 1.07
U7G G9C U10C C12A C13A | 1.16
U7A U8G G9A U10A | 1.4
U7G G9U U10G U11C C12U | 1.17
U7C U8G G9A U10G U11G C12U C13U | 1.22
U7A G9C U10G U11A C12G C13U | 1.06

Variant | aptazyme ON/OFF ratio
U7A U8A G9U U10C C13A | 1.08
U7C U8G U10C U11A | 2.93
U7G U8C G9U U10G C13U | 1.24
U7A U8A G9U U10G U11C C13A | 1.06
U7C U8G G9C U10C U11A C13G | 1.23
U8A G9A U10A C12U C13U | 1.33
U7G U8C G9U U10G U11C C12G C13A | 1.26
U7C U8A U11G C12U C13A | 1.29
U7C U8A G9A U11A C13A | 1.17
U7C U10C U11G C12U C13A | 1.16
U7A U8C G9U U10C C12G C13U | 1.51
U7C U8C G9C U10C U11C C12U C13U | 1.03
U7G U8A U11C C12G C13U | 1.32
U8C G9U U11G C12G C13U | 1.09
U7C U8C G9C U10C U11G C12U C13G | 1.1
U8C U11A C12A C13A | 1.32
U7A U8A G9A U10G U11G C13U | 1.07
U8C U11C C13U | 1.19
U7G U8A G9C U10C U11A C12G C13U | 1.09
U7G U8A U10C C12A | 1.5
U7A U8C U10G U11C C12U C13A | 1.36
U7C U11A C13G | 1.04
U7G U8A G9C U10C U11C C12U | 1.03
U7A U8C G9C U10A U11C C12G C13A | 1.29

Variant | aptazyme ON/OFF ratio
U10A U11G C12G C13G | 1.42
U7G U8G G9C U10A C13A | 1.05
U7C U8G G9U U10A C12U C13G | 1.2
U7C U8A G9A U10G U11G | 1.04
U7A U8A U11A C12G C13G | 1.13
U8C C12A | 1.52
U7G U8G G9U U11G C12U | 1.45
U7C U8A U10G C12G | 1.34
U7C G9A U11G | 1.37
U7G U8C U11C C12G C13U | 1.46
U8C G9A U10C U11G C12G | 1.27
U7G G9C U10A C12G C13A | 1.1
U8C U10A C13A | 1.07
U7G U8G G9U U10G U11A C12U C13U | 1.2
U7C U10G U11A C12A C13A | 1.2
U7A U8C G9C U10A C12A C13U | 1.09
U8G G9U U10C U11C C12U | 1.03
U7C U8C G9U C12U | 1.61
U7C G9U U10C U11A C12G C13U | 1.15
U7G G9U U10G U11A C12G | 1.26
U7G G9C U10A U11G C12G C13G | 1.08
U7G U8A G9A U10G C12G C13G | 1.09
U7C U8G U11G C12G C13U | 1.05
U7G U8G G9U U10C | 1.51

Variant | aptazyme ON/OFF ratio
U7G U8A U11G C12G C13G | 1.32
U7C U8C G9A | 1.59
U7C U8C G9U | 2.34
U7C G9C C12U | 1.03
U8C G9C U10G U11A | 1.1
U8G G9A C12G C13G | 1.29
U7A U8C G9C U10G U11A C12A C13G | 1.16
U7C U8C G9C U10G C12U | 1.2
U7G U8A G9C U10A U11C C12G | 1.05
U7C G9U U10A U11A C12A C13G | 1.1
U7G U8C G9U U10G U11A C12A | 1.3
U7C U8A U11A C12G C13G | 1.16
U7C U8G G9A U11C | 1.04
U7C G9A U11A C12G C13G | 1.19
U7A U8G G9C U10A U11G C13A | 1.29
U7A U8A G9A U10A U11G C12A C13A | 1.16
U8A G9U U10G U11A C12G C13A | 1.27
U8G G9C U11A C12G | 1.07
U7C U8G U10C U11C C12U C13G | 1.23
U7G U8G U10G U11G C12U C13U | 1.32
U7C U10G C12U | 1.32
U7C U8C G9C U10C C12A C13A | 1.06
U7A G9C U10A U11C C12A | 1.08
U7A U8G G9A U10A U11G C12A C13A | 1.1

Variant | aptazyme ON/OFF ratio
U7C G9C U10G C12A | 1.12
U7A U8G G9U U10A U11A C12G C13U | 1.22
U7C U8A G9A U10G U11C C12A | 1.2
G9C U10G U11C C13G | 1.03
U7G U8C U10G U11G C12G C13U | 1.4
U8G G9C U11C C12U C13G | 1.03
U7A U8G U10G C12U | 1.37
U7G U8G G9U U11G | 2.02
U7C U8G G9A U10A C12U C13U | 1.27
U7A G9A U11G C12A | 1.18
U7A U8C G9U U10A U11C C13G | 1.1
U8C G9U U10G U11A C12U C13G | 1.16
U8A G9U U10A U11G C12G C13G | 1.24
U7A U8C G9C U10G C13A | 1.1
U7G G9U U11A C13U | 1.27
U8A U10G U11A | 1.09
U8A U10G U11C | 1.02
U7A U8A G9A U10A U11A C12G C13G | 1.28
U7A U8A G9A C12U C13G | 1.12
U7G G9C U11C C12U C13U | 1.25
U7G U8C G9U U10G U11A | 1.21
U7A U8G U10G U11A C12U C13G | 0.975
U7A G9A U10G U11A C12A | 1.17
U7G U8G U10G U11G C12A | 1.23

Variant | aptazyme ON/OFF ratio
U7A U8A U10A U11G C12A C13A | 1.19
U7G U8G G9C U10G C12A C13A | 1.07
U7G U8G G9C U10G C12A C13G | 1.06
U8G G9C U10A C12G | 1.1
U8G U11A C12A C13G | 1.14
U7A G9A U10G U11C C12U C13A | 1.2
U7G U8G G9C U10G U11G C12A | 1.11
U7C G9A U11A C12A C13G | 1.12
U7C U8A U10G U11A C12G C13A | 1.12
U7C U8C G9C U11C C13G | 1.04
U7A U8C U10A C12G C13A | 1.09
U8C G9A U10G U11C C12U | 1.07
U7A G9C U11C C13U | 1.02
U8A G9U U10C U11C C12A C13G | 1.05
G9A U10G U11G C12A | 1.11
U7C U8C G9A U10G U11G C12G C13A | 1.15
U7A U8A G9U C12A | 1.19
U7G U8G G9U U10G U11C C12G | 1.11
U7A U8A G9A U11G C13A | 1.15
U7C G9U U10G C12G C13A | 1.2
U7C U8C G9A U10C C12U | 2.28
G9C U10C U11A C12A | 1.07
U7G U8C G9U U10A U11C C12A | 2.56
